The target of series [1] is T1, HRGsingle peptide (single heparin-binding motif of histidine-rich glycoprotein) (human).
T1 construct: also called GHHPHG; source: synthetic peptide (Biosyntan GmbH, Berlin)
Briefly: ITC; 0.5 mM HRGsingle peptide titrated into 0.05 mM sHIPwt or sHIPqp, 20 mM MES pH 5.5, 25°C; one independent binding site model. The note with it: both partners purified. In general terms: Isothermal titration calorimetry measures the heat released or taken up as one component is titrated into another.

Series [2] concerns the molecule itself. Briefly: AUC; sedimentation velocity, 20°C, 50000 rpm, 20 mM MES pH 5.5; c(S) distribution compared with theoretical sedimentation coefficients (HYDROPRO).

B1: quadruple mutant protein sHIP, sHIPqp (natural protein)
chain: SMKQDQLIVEKMEQTYEAFSPKLANLIEALDAFKEHYEEYATLRNFYSSDEWFRLANQPWDDIPSGVLSEDLLFDMIGDHNQLAADIADLAPIMAKHM
notes: protein sHIP, S. pyogenes, UniProt Q99XU0, residues Lys3-Met98 with Leu84, Leu88, Tyr95 mutated to alanine and Cys65 to serine; Dimer by AUC and in the crystal; For NMR the protein was double-labelled (15N, 13C), grown in minimal medium; also called sHIPqp mutant; sHIP mutant; source: E. coli Rosetta BL21 (DE3), purified (IMAC, His-tag removed with TEV protease, reverse phase chromatography); not …
Consider B1, for which the affinity in series [1], expressed as Kd, was 2800 ± 300 nM. For the same molecule, the “stoichiometry N” value in series [2] came out at 2.

Usually Kd stands for the free concentration of one partner at which half of the binding sites on the other are occupied at equilibrium, for simple one-to-one binding. A low value points to a tighter complex. A word on the stoichiometry N: it is the number of molecules, sites or subunits per partner or assembly.

The values above are taken from article PMC4742562, “Structure and Interactions of a Dimeric Variant of sHIP, a Novel Virulence Determinant of Streptococcus pyogenes” (Frontiers in Microbiology, 2016).
